Reference: the supplement of paper PMC10065799, “High-throughput profiling of sequence recognition by tyrosine kinases and SH2 domains using bacterial peptide display” (eLife, 2023)

Assays:
Fes = Fes (UniProt P07332); assay: phosphorylation enrichment, bacterial display (enrichment ratio); higher = better substrate or ligand; peptides without Tyr show the background
Hck = Hck (UniProt P08631); assay: as above
Jak2 = Jak2 (UniProt O60674); assay: as above
AncSZ = assay: as above
c-Abl (mouse) = assay: as above
FGFR1 = FGFR1 (UniProt P11362); assay: as above
FGFR1, sequence (P11362 whole entry, looked up): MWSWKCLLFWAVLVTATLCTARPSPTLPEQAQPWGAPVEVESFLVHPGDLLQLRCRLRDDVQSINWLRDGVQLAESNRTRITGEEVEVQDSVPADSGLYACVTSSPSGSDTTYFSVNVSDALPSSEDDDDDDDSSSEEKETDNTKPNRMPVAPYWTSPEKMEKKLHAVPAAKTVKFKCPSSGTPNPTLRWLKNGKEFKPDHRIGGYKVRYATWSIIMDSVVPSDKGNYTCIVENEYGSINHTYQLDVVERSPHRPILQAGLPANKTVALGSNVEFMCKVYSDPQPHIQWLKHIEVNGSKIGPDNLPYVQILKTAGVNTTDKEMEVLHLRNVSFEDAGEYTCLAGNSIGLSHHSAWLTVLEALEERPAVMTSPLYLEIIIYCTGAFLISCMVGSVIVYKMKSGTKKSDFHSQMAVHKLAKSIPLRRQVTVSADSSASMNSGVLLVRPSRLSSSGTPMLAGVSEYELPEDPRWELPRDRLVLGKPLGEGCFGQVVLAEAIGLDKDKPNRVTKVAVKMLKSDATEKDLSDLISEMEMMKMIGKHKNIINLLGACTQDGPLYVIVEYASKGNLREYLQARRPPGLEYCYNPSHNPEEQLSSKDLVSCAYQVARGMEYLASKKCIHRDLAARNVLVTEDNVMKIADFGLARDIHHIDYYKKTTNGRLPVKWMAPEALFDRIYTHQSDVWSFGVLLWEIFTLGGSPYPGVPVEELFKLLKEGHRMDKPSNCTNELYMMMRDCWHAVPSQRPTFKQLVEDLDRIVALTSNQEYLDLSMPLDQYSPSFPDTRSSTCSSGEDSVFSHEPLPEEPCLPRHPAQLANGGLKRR

Fyn = Fyn (UniProt P06241); assay: as above
Fyn, sequence (P06241 whole entry, looked up): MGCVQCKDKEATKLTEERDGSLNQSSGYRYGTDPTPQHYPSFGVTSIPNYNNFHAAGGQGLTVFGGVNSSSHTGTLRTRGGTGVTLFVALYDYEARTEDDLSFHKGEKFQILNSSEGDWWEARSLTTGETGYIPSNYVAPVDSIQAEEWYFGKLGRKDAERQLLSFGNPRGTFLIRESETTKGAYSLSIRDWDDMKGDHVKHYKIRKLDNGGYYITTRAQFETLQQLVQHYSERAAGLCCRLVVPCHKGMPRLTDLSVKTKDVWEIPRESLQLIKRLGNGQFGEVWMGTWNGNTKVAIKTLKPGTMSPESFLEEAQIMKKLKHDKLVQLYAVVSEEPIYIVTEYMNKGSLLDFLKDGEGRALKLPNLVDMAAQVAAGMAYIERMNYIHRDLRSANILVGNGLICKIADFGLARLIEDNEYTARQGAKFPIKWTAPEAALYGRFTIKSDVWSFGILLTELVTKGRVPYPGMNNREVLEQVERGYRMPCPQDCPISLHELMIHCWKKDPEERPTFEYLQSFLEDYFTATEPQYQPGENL

EPHB1 = EPHB1 (UniProt P54762); assay: as above
c-Src = assay: as above
MERTK = MERTK (UniProt Q12866); assay: as above
EPHB2 = EPHB2 (UniProt P29323); assay: as above
EPHB2, sequence (P29323 whole entry, looked up): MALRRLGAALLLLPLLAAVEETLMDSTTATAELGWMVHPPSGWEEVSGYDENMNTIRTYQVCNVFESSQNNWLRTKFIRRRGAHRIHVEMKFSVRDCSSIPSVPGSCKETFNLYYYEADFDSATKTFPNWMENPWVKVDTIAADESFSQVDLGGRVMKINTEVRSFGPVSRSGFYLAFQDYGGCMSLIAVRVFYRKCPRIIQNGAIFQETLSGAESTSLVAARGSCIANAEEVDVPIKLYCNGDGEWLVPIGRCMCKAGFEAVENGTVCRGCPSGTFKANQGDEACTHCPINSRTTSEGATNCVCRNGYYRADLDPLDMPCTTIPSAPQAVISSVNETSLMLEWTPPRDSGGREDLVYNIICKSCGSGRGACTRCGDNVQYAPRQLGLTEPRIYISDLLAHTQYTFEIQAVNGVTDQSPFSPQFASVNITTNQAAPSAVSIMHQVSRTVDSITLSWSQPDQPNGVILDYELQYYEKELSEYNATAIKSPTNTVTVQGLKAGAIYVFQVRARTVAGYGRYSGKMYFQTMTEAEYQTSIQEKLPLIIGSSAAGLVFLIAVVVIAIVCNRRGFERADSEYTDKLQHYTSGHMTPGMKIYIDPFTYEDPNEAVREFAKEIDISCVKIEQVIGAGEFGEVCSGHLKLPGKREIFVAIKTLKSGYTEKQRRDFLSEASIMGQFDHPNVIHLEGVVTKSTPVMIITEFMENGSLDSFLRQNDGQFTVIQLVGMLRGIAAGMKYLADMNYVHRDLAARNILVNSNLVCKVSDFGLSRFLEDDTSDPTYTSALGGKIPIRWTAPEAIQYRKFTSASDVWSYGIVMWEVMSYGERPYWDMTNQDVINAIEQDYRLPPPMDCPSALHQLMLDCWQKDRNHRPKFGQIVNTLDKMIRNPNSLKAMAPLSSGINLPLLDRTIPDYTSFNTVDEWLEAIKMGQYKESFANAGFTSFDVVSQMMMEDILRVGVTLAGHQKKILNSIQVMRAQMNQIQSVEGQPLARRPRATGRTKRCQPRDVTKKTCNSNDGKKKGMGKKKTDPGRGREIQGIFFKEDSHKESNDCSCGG

FGFR3 = FGFR3 (UniProt P22607); assay: as above
Fer (mouse) = assay: as above
SHP2-C SH2 = assay: SH2 binding enrichment of the phosphorylated peptide, bacterial display (enrichment ratio); higher = better substrate or ligand; peptides without Tyr show the background
Grb2 SH2 = Grb2 SH2 (UniProt P62993); assay: as above
c-Src SH2 = assay: as above
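For SH2 binding enrichment of the phosphorylated peptide, bacterial display in this document: peptide library displayed on the E. coli surface as eCPX fusions, selected cells deep-sequenced, score is each peptide's frequency after selection divided by its frequency in the input.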
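For phosphorylation enrichment, bacterial display in this document: 11-residue human phosphosite peptides and single-mutation variants displayed on the E. coli surface, counted by deep sequencing, each peptide's frequency after selection divided by its frequency in the unselected input library; frequency after pTyr selection over input frequency; kinase dosed for 20-30% of maximal phosphorylation in three min.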

Jak2, sequence (O60674 whole entry, looked up): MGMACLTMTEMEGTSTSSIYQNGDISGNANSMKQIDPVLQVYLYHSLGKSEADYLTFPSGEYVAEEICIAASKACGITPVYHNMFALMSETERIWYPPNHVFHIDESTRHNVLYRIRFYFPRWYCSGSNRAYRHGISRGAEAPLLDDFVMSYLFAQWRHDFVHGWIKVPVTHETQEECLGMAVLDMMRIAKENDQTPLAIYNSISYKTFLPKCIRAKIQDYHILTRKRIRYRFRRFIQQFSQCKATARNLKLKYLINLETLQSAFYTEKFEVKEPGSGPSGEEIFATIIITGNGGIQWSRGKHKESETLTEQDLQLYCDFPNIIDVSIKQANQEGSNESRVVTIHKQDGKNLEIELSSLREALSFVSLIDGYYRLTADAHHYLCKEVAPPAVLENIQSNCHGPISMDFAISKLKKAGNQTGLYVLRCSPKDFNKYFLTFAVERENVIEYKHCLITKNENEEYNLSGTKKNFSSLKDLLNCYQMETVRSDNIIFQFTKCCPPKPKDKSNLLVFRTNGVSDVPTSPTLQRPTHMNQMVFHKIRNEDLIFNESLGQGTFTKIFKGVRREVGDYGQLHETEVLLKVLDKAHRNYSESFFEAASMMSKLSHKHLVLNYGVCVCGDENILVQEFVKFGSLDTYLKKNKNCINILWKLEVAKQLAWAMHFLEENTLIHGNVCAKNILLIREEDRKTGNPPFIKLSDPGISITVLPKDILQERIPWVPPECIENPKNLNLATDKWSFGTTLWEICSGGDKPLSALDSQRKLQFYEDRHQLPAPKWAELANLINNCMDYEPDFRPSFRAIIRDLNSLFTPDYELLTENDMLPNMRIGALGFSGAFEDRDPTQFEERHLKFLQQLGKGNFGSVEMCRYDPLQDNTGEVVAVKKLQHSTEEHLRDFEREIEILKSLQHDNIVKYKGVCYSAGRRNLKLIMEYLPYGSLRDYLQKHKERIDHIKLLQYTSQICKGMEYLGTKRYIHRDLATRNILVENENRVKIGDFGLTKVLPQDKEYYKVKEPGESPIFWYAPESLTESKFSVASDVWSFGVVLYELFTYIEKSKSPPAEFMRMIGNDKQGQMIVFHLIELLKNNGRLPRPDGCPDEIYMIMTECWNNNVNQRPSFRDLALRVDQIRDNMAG
Fes, sequence (P07332 whole entry, looked up): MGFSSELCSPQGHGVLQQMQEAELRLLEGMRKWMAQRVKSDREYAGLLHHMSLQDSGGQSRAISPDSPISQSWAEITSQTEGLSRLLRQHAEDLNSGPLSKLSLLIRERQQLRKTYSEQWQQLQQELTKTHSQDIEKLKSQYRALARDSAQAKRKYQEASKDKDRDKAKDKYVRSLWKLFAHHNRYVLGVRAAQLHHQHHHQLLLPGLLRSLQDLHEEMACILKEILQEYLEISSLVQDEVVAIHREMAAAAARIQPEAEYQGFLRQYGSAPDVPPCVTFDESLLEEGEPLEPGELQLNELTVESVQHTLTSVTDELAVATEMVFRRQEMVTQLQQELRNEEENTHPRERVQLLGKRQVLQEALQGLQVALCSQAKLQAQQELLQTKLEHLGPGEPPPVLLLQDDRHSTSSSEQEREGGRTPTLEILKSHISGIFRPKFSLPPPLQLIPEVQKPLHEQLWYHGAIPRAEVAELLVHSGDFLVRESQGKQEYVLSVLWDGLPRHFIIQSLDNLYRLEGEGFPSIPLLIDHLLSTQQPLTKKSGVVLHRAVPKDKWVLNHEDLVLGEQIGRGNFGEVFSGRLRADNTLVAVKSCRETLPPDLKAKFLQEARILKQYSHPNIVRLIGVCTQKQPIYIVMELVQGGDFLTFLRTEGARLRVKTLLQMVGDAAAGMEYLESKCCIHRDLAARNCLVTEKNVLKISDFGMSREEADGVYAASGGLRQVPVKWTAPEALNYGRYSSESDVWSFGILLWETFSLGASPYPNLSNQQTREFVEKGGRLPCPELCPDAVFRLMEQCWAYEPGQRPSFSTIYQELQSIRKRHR
Hck, sequence (P08631 whole entry, looked up): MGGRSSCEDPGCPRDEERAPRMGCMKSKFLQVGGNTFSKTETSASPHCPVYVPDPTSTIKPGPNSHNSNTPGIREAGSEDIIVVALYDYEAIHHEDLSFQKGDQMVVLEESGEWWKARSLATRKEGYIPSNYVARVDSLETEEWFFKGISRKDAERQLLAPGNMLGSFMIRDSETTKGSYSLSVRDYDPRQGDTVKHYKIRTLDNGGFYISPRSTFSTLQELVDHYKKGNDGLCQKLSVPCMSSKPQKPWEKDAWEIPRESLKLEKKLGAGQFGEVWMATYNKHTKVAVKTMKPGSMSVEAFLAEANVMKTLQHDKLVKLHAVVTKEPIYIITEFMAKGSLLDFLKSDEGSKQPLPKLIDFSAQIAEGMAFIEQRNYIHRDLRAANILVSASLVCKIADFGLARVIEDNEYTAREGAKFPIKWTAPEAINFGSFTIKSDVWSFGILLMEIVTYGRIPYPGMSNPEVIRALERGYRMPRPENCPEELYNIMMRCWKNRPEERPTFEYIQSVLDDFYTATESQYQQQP

Sequence | SH2 binding enrichment (SHP2-C SH2) | SH2 binding enrichment (Grb2 SH2) | SH2 binding enrichment (c-Src SH2) | phosphorylation enrichment (Fes) | phosphorylation enrichment (Hck) | phosphorylation enrichment (Jak2) | phosphorylation enrichment (AncSZ) | phosphorylation enrichment (c-Abl (mouse)) | phosphorylation enrichment (FGFR1) | phosphorylation enrichment (Fyn) | phosphorylation enrichment (EPHB1) | phosphorylation enrichment (c-Src) | phosphorylation enrichment (MERTK) | phosphorylation enrichment (EPHB2) | phosphorylation enrichment (FGFR3) | phosphorylation enrichment (Fer (mouse))
SNMPSYSGHFT [GRIN2A_Y1224_T1223S] | 0.631 | 0.79 | 0.548 | 0.599 | 0.425 | 0.614 | 0.476 | 0.444 | 0.328 | 0.465 | 0.417 | 0.463 | 0.411 | 0.408 | 0.421 | 1.6
SRDPFYEMLAA [CYTH1_Y382] | 0.748 | 0.957 | 2.44 | 1.26 | 4.88 | 0.729 | 1.21 | 0.681 | 5.1 | 2.55 | 3.5 | 2.96 | 7.89 | 1.71 | 3.2 | 12.4
SRNKPYISWPS [CDC42BPB_Y1638] | 1.51 | 1.61 | 1.32 | 0.612 | 0.485 | 0.977 | 0.583 | 0.477 | 0.469 | 0.436 | 0.417 | 0.483 | 0.441 | 0.395 | 0.511 | 0.345
SSDPDYRAAVD [GLB1_Y154_L155R] | 0.668 | 0.78 | 0.627 | 0.988 | 0.527 | 0.793 | 0.926 | 0.669 | 0.556 | 0.449 | 0.508 | 0.409 | 0.471 | 0.589 | 0.635 | 0.507
SSVKLYRVYCD [FGB_Y266_P265L] | 0.818 | 0.893 | 0.606 | 1.22 | 0.603 | 0.955 | 1.06 | 0.718 | 0.459 | 0.479 | 0.618 | 0.525 | 0.459 | 0.634 | 0.728 | 0.531
STSYDYCRVPM [BST2_Y8] | 0.937 | 0.858 | 1.54 | 0.892 | 2.22 | 2.55 | 3.77 | 1.11 | 7.46 | 0.711 | 11.7 | 1.13 | 3.24 | 10.3 | 5.34 | 4.37
STTSDYQWDVS [MTDH_Y364] | 0.612 | 0.921 | 0.449 | 1.22 | 0.508 | 1.05 | 1.23 | 0.782 | 0.659 | 0.54 | 0.741 | 0.407 | 0.387 | 0.615 | 0.865 | 0.476

More lines, main results first:

SH2 binding enrichment (SHP2-C SH2) | SH2 binding enrichment (Grb2 SH2) | SH2 binding enrichment (c-Src SH2) | Sequence | phosphorylation enrichment (Fes) | phosphorylation enrichment (Hck) | phosphorylation enrichment (Jak2) | phosphorylation enrichment (AncSZ) | phosphorylation enrichment (c-Abl (mouse)) | phosphorylation enrichment (FGFR1) | phosphorylation enrichment (Fyn) | phosphorylation enrichment (EPHB1) | phosphorylation enrichment (c-Src) | phosphorylation enrichment (MERTK) | phosphorylation enrichment (EPHB2) | phosphorylation enrichment (FGFR3) | phosphorylation enrichment (Fer (mouse))
0.542 | 0.823 | 0.459 | SLMGCYNLTFM [HS6ST3_Y323_V320M] | 1.63 | 0.724 | 1.61 | 1.46 | 1.14 | 0.546 | 0.592 | 0.65 | 0.955 | 0.56 | 0.655 | 1.02 | 1.35
0.663 | 0.988 | 0.621 | SLNEEYTKNKT [MSH2_Y563] | 0.786 | 0.37 | 0.593 | 0.716 | 0.537 | 0.324 | 0.325 | 0.369 | 0.426 | 0.348 | 0.354 | 0.397 | 0.379
0.671 | 0.717 | 0.497 | SNFRAYATEPH [TNNI3_Y29_YF] | 0.664 | 0.441 | 0.526 | 0.647 | 0.64 | 0.53 | 0.473 | 0.399 | 0.486 | 0.378 | 0.463 | 0.462 | 0.366
0.649 | 0.869 | 0.651 | SNKLFYQLEQE [PDPR_Y110_YF] | 1.39 | 0.641 | 1.3 | 1.25 | 0.791 | 0.588 | 1.45 | 0.628 | 1.91 | 0.508 | 0.738 | 0.692 | 0.583
0.73 | 0.947 | 0.916 | SRDDFYETIAM [NPY1R_Y347_D346Y_YF] | 1.21 | 2.04 | 1.23 | 1.3 | 0.773 | 0.5 | 1.44 | 1.02 | 1.06 | 0.826 | 0.68 | 0.871 | 7.71
0.898 | 0.714 | 2.11 | SSQHRYSTPHA [RAF1_Y232] | 0.53 | 0.293 | 0.403 | 0.682 | 0.387 | 0.364 | 0.357 | 0.479 | 0.433 | 0.437 | 0.354 | 0.344 | 0.365
0.481 | 1.09 | 0.375 | SSSGGYGGGFG [KRT19_Y61_A60G_YF] | 0.593 | 0.35 | 0.499 | 0.48 | 0.512 | 0.32 | 0.355 | 0.341 | 0.356 | 0.398 | 0.346 | 0.477 | 0.358
0.885 | 0.891 | 0.608 | SSTASYFKAPG [RFX2_Y108_E110K] | 0.619 | 0.431 | 0.53 | 0.598 | 0.418 | 0.548 | 0.4 | 0.471 | 0.394 | 0.415 | 0.394 | 0.474 | 0.339
0.927 | 0.74 | 0.387 | SVDRDYVLKSA [HTATIP2_Y111_R106S] | 0.755 | 0.399 | 0.571 | 0.66 | 0.699 | 0.487 | 0.439 | 0.546 | 0.426 | 0.4 | 0.403 | 0.54 | 0.403
